Drawing on patent US20190185537A1 (AstraZeneca / MedImmune, published 2019), this text covers cAMP EC50 (assay 1) for four molecules.

Sequences and labels used below:
T1: human glucose-dependent insulinotropic peptide (gastric inhibitory polypeptide) receptor (human) (UniProt P48546)
T1 sequence (looked up): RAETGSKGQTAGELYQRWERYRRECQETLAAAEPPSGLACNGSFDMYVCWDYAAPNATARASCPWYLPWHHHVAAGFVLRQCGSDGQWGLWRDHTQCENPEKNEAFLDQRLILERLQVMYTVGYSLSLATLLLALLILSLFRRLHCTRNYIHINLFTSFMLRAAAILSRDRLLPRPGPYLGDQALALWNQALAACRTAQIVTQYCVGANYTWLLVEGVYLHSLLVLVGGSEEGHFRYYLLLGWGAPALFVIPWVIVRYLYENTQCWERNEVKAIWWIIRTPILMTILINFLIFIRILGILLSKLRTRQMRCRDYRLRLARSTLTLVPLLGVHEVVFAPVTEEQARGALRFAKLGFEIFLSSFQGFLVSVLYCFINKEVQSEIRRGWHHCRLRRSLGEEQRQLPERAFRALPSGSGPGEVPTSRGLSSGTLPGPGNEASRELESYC

B1: g322 (peptide)
peptide: HSQGTFTSDYSKYLDSRRAQDFVQWLVAGGKNNRNNIAK(Palmitoyl)-NH2
modifications: N-terminus assumed
SMILES: CCCCCCCCCCCCCCCC(=O)NCCCC[C@H](NC(=O)[C@H](C)NC(=O)[C@@H](NC(=O)[C@H](CC(N)=O)NC(=O)[C@H](CC(N)=O)NC(=O)[C@H](CCCNC(=N)N)NC(=O)[C@H](CC(N)=O)NC(=O)[C@H](CC(N)=O)NC(=O)[C@H](CCCCN)NC(=O)CNC(=O)CNC(=O)[C@H](C)NC(=O)[C@@H](NC(=O)[C@H](CC(C)C)NC(=O)[C@H](Cc1c[nH]c2ccccc12)NC(=O)[C@H](CCC(N)=O)NC(=O)[C@@H](NC(=O)[C@H](Cc1ccccc1)NC(=O)[C@H](CC(=O)O)NC(=O)[C@H](CCC(N)=O)NC(=O)[C@H](C)NC(=O)[C@H](CCCNC(=N)N)NC(=O)[C@H](CCCNC(=N)N)NC(=O)[C@H](CO)NC(=O)[C@H](CC(=O)O)NC(=O)[C@H](CC(C)C)NC(=O)[C@H](Cc1ccc(O)cc1)NC(=O)[C@H](CCCCN)NC(=O)[C@H](CO)NC(=O)[C@H](Cc1ccc(O)cc1)NC(=O)[C@H](CC(=O)O)NC(=O)[C@H](CO)NC(=O)[C@@H](NC(=O)[C@H](Cc1ccccc1)NC(=O)[C@@H](NC(=O)CNC(=O)[C@H](CCC(N)=O)NC(=O)[C@H](CO)NC(=O)[C@@H](N)Cc1c[nH]cn1)[C@@H](C)O)[C@@H](C)O)C(C)C)C(C)C)[C@@H](C)CC)C(N)=O
B2: g326 (peptide)
peptide: HSQGTFTSDYSKYLDSRRAQDFVQWLVAGGGGGGK(Palmitoyl)-NH2
modifications: N-terminus assumed
SMILES: CCCCCCCCCCCCCCCC(=O)NCCCC[C@H](NC(=O)CNC(=O)CNC(=O)CNC(=O)CNC(=O)CNC(=O)CNC(=O)[C@H](C)NC(=O)[C@@H](NC(=O)[C@H](CC(C)C)NC(=O)[C@H](Cc1c[nH]c2ccccc12)NC(=O)[C@H](CCC(N)=O)NC(=O)[C@@H](NC(=O)[C@H](Cc1ccccc1)NC(=O)[C@H](CC(=O)O)NC(=O)[C@H](CCC(N)=O)NC(=O)[C@H](C)NC(=O)[C@H](CCCNC(=N)N)NC(=O)[C@H](CCCNC(=N)N)NC(=O)[C@H](CO)NC(=O)[C@H](CC(=O)O)NC(=O)[C@H](CC(C)C)NC(=O)[C@H](Cc1ccc(O)cc1)NC(=O)[C@H](CCCCN)NC(=O)[C@H](CO)NC(=O)[C@H](Cc1ccc(O)cc1)NC(=O)[C@H](CC(=O)O)NC(=O)[C@H](CO)NC(=O)[C@@H](NC(=O)[C@H](Cc1ccccc1)NC(=O)[C@@H](NC(=O)CNC(=O)[C@H](CCC(N)=O)NC(=O)[C@H](CO)NC(=O)[C@@H](N)Cc1c[nH]cn1)[C@@H](C)O)[C@@H](C)O)C(C)C)C(C)C)C(N)=O

Numbered stars: 1 amine (or outer) side, 2 acyl side, 3 side chain; on linkers, the order of the positions; unused ones are H or OH. Side chains are listed from the residue outwards. Ends that are not written are not given here. * marks the point of attachment. γGlu = O=C(O)[C@H](CCC(=O)[*:2])N[*:1]; Palmitoyl = CCCCCCCCCCCCCCCC(=O)*

Sequence of human glucagon receptor (P47871 26-477): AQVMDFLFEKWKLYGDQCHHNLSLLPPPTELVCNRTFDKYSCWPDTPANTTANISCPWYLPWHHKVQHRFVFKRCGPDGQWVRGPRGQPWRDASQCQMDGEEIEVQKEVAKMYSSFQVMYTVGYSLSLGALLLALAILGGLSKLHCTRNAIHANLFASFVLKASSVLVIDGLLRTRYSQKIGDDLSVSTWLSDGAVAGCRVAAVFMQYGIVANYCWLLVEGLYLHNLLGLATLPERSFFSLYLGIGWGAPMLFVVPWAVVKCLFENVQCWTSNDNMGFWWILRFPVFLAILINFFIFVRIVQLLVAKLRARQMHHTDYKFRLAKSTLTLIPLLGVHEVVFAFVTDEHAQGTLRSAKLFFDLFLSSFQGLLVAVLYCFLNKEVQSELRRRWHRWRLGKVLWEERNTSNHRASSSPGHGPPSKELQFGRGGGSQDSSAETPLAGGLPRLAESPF

The first assay concerns the target human glucagon receptor (human, UniProt P47871 26-477). Nature of the assay: cell-based or functional assay.
For HSQGTFTSDYSKYLDSRRAQDFVQWLVAGGGGGGK([γGlu-Palmitoyl])-NH2 [g327], the cAMP EC50 (assay 1) was 0.00232 nM.

Molecule B1 came in with a cAMP EC50 (assay 1) of 0.00355 nM.

As to HSQGTFTSDYSKYLDSRRAQDFVQWLVAGGKNNRNNIAK-NH2 [g321], the cAMP EC50 (assay 1) stood at 0.0279 nM.

B2: the cAMP EC50 (assay 1) is 0.00282 nM.

A further assay deals with human GLP-1 receptor (human, UniProt P43220 24-463). The assay is described as follows: cell-based or functional assay.
Sequence of human GLP-1 receptor (P43220 24-463): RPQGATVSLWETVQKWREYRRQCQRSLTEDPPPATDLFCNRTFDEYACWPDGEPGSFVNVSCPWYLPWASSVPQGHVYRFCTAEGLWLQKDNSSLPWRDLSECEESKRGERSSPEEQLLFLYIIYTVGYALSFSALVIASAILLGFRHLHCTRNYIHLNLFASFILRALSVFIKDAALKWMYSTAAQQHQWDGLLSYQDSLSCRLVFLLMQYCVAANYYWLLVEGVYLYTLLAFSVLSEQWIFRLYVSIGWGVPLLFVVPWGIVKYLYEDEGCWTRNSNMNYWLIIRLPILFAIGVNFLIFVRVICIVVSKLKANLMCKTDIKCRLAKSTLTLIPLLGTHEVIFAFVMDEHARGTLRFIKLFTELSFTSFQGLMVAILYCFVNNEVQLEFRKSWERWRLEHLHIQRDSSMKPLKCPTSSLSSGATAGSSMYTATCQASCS
In the case of HSQGTFTSDYSKYLDSRRAQDFVQWLVAGGGGGGK([γGlu-Palmitoyl])-NH2 [g327], the cAMP EC50 (assay 1) came to 0.0193 nM.

Molecule B1 displayed a cAMP EC50 (assay 1) of 0.0106 nM.

Molecule HSQGTFTSDYSKYLDSRRAQDFVQWLVAGGKNNRNNIAK-NH2 [g321] registered a cAMP EC50 (assay 1) of 0.0272 nM.

Molecule B2 returned a cAMP EC50 (assay 1) of 0.0247 nM.

Another assay concerns the target T1, human glucose-dependent insulinotropic peptide (gastric inhibitory polypeptide) receptor (human). Nature of the assay: cell-based or functional assay.
In turn, HSQGTFTSDYSKYLDSRRAQDFVQWLVAGGGGGGK([γGlu-Palmitoyl])-NH2 [g327] had a cAMP EC50 (assay 1) of 12.8 nM.

On to B1, for which the cAMP EC50 (assay 1) turned out to be 1.72 nM.

On to HSQGTFTSDYSKYLDSRRAQDFVQWLVAGGKNNRNNIAK-NH2 [g321], for which the cAMP EC50 (assay 1) stood at 6.41 nM.

Take B2: the cAMP EC50 (assay 1) was found to be 12.6 nM.
